From patent publication US20240382610A1 (TALLAC THERAPEUTICS, published 2024)

T1: Human nectin-4 ECD-6His (TNT-175) (human, UniProt Q96NY8 32-349)
T1 construct: the entry holds the extracellular domain with the C-terminal 6His tag
T1 sequence: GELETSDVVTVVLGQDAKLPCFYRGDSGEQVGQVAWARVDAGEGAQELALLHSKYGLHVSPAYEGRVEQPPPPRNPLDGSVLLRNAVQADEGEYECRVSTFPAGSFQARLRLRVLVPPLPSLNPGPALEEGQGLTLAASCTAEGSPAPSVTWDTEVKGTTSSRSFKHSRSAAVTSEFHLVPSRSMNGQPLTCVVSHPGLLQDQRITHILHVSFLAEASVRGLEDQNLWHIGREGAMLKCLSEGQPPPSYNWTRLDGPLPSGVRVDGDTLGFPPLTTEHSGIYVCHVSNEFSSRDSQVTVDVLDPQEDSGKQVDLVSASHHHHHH

T2: human nectin-4 on cells (human, UniProt Q96NY8 32-510)
T2 construct: whole, on cells; also called PVRL4
T2 sequence (looked up): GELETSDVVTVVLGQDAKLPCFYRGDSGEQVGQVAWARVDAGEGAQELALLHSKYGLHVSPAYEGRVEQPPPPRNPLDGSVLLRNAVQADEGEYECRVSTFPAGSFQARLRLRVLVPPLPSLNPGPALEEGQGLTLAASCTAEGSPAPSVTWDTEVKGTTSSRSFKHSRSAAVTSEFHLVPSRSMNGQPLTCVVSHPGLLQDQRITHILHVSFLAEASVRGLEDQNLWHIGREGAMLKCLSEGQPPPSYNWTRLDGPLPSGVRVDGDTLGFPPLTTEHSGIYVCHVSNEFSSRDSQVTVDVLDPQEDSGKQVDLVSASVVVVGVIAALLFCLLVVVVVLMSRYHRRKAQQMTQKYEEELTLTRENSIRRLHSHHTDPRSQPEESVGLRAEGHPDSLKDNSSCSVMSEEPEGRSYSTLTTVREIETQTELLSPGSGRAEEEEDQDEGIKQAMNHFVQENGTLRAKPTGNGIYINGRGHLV

B1: TNT-192 (antibody, mouse IgG2a, kappa)
heavy: EVQLLESGGGVVQPGRSLRLSCAASGFTFSSYGMHWVRQAPGKGLEWVAVISYDGSNKYYADSVKGRFTISRDNSKNTLYLQMNSLRAEDTAVYYCAKDYGYNWNFFDYWGQGTLVTVSSAKTTAPSVYPLAPVCGDTTGSSVTLGCLVKGYFPEPVTLTWNSGSLSSGVHTFPAVLQSDLYTLSSSVTVTSSTWPSQSITCNVAHPASSTKVDKKIEPRGPTIKPCPPCKCPAPNLLGGPSVFIFPPKIKDVLMISLSPIVTCVVVDVSEDDPDVQISWFVNNVEVHTAQTQTHREDYNSTLRVVSALPIQHQDWMSGKEFKCKVNNKDLPAPIERTISKPKGSVRAPQVYVLPPPEEEMTKKQVTLTCMVTDFMPEDIYVEWTNNGKTELNYKNTEPVLDSDGSYFMYSKLRVEKKNWVERNSYSCSVVHEGLHNHHTTKSFSRTPGRPQGFGPP
light: DIVMTQSPSSLSASVGDRVTITCRASQGISNYLAWYQQKPGKVPKLLIYAASTLQSGVPSRFSGSGSGTDFTLTISSLQPEDVATYYCQKYNSAPYTFGQGTKVEIKRADAAPTVSIFPPSSEQLTSGGASVVCFLNNFYPKDINVKWKIDGSERQNGVLNSWTDQDSKDSTYSMSSTLTLTKDEYERHNSYTCEATHKTSTSPIVKSFNRNEC
B2: TNT-191 (antibody, mouse IgG2a, kappa)
heavy: EVQLLESGGGVVQPGRSLRLSCAASGFTFSSYGMHWVRQAPGKGLEWVAVISYDGSNKYYADSVKGRFTISRDNSKNTLYLQMNSLRAEDTAVYYCAKSSYYDYVWGSYRYTDAFDIWGQGTMVTVSSAKTTAPSVYPLAPVCGDTTGSSVTLGCLVKGYFPEPVTLTWNSGSLSSGVHTFPAVLQSDLYTLSSSVTVTSSTWPSQSITCNVAHPASSTKVDKKIEPRGPTIKPCPPCKCPAPNLLGGPSVFIFPPKIKDVLMISLSPIVTCVVVDVSEDDPDVQISWFVNNVEVHTAQTQTHREDYNSTLRVVSALPIQHQDWMSGKEFKCKVNNKDLPAPIERTISKPKGSVRAPQVYVLPPPEEEMTKKQVTLTCMVTDFMPEDIYVEWTNNGKTELNYKNTEPVLDSDGSYFMYSKLRVEKKNWVERNSYSCSVVHEGLHNHHTTKSFSRTPGRPQGFGPP
light: EIVLTQSPATLSLSPGERATLSCRASQSVSSSYLAWYQQKPGQAPRLLIYGASSRATGIPDRFSGSGSGTDFTLTISRLEPEDFAVYYCQQYNNWWTFGQGTKVDIKRADAAPTVSIFPPSSEQLTSGGASVVCFLNNFYPKDINVKWKIDGSERQNGVLNSWTDQDSKDSTYSMSSTLTLTKDEYERHNSYTCEATHKTSTSPIVKSFNRNEC
B3: TNT-193 (antibody, mouse IgG2a, kappa)
heavy: QVQLQESGPGLVKPSGTLSLTCTVSGGSISSGGYYWAWIRQPPGKGLEWIGSIYYTGSTYYNPSLKSRVTIYVDTSKNQFSLKLSSVTAADTAVYYCARDPFPEPPDAFDIWGQGTMVTVSSAKTTAPSVYPLAPVCGDTTGSSVTLGCLVKGYFPEPVTLTWNSGSLSSGVHTFPAVLQSDLYTLSSSVTVTSSTWPSQSITCNVAHPASSTKVDKKIEPRGPTIKPCPPCKCPAPNLLGGPSVFIFPPKIKDVLMISLSPIVTCVVVDVSEDDPDVQISWFVNNVEVHTAQTQTHREDYNSTLRVVSALPIQHQDWMSGKEFKCKVNNKDLPAPIERTISKPKGSVRAPQVYVLPPPEEEMTKKQVTLTCMVTDFMPEDIYVEWTNNGKTELNYKNTEPVLDSDGSYFMYSKLRVEKKNWVERNSYSCSVVHEGLHNHHTTKSFSRTPGRPQGFGPP
light: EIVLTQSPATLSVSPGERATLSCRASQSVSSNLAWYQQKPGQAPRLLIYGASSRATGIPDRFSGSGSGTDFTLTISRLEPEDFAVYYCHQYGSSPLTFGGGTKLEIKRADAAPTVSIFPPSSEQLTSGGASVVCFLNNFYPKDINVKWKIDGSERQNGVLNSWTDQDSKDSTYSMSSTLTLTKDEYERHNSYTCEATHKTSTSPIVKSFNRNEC

target: T1, Human nectin-4 ECD-6His (TNT-175); experiment: competition ELISA; nectin-4 ECD premixed with TNT212, captured by the coat antibody; % of signal without premix antibody
Protocol: (§1) Competition experiments of nectin-4 antibodies. ELISA plates were coated overnight at 4° C. with goat anti-mouse IgG at […] in PBS. […] As positive control, nectin-4 was diluted at same concentrations without a premix antibody. Two wells per plate were allocated for diluent only as negative/background control. Plates were washed as previously, 50 μL/well of premix was added to each plate and incubated for one hour. Plates were washed then incubated at room temperature for one hour with Rabbit anti 6× HIS HRP diluted 1:4,000 in diluent. Plates were washed once more and incubated at room temperature for 20 minutes with 50 μL/well of ABTS substrate. […] Binding was measured as an Optical Density (O.D.) value normalized to background and calculated as a percentage of positive control at the lowest nectin-4 dilution for greatest resolution.

% of Positive | Binder
2.2% | B1
3% | B2
3.7% | B3

target: T1, Human nectin-4 ECD-6His (TNT-175); experiment: competition ELISA; nectin-4 ECD premixed with TNT207, captured by the coat antibody; % of signal without premix antibody
Protocol: as §1

% of Positive | Binder
1.5% | B1
2.5% | B2
1.6% | B3

target: T1, Human nectin-4 ECD-6His (TNT-175); experiment: competition ELISA; nectin-4 ECD premixed with TNT203, captured by the coat antibody; % of signal without premix antibody
Protocol: as §1

% of Positive | Binder
23.3% | B1
32.7% | B2
17% | B3

target: T1, Human nectin-4 ECD-6His (TNT-175); experiment: competition ELISA; nectin-4 ECD premixed with TNT202, captured by the coat antibody; % of signal without premix antibody
Protocol: as §1

% of Positive | Binder
3.1% | B1
4.8% | B2
3% | B3

target: T1, Human nectin-4 ECD-6His (TNT-175); experiment: competition ELISA; nectin-4 ECD premixed with TNT204, captured by the coat antibody; % of signal without premix antibody
Protocol: as §1

% of Positive | Binder
2.9% | B1
4.5% | B2
1.9% | B3

target: T1, Human nectin-4 ECD-6His (TNT-175); experiment: SPR ProteOn, mAb on protein A
Protocol: Initial testing of binding of nectin-4 antibodies to nectin-4. […] Biotinylated protein A (15 μg/mL) was immobilized to the surface of an NLC chip. 30 nM of purified mAb supernatant was diluted in PBS-T and captured over the protein A surface. Serial dilutions of human nectin-4 were injected over the mAb-coated chips, and binding kinetics were determined. Chips were regenerated using 4:1 v/v of IgG elution butter/4M NaCl.

Kd | koff | kon | Binder
9.14 nM | 0.00294 s⁻¹ | 322000 M⁻¹ s⁻¹ | B1
4.3 nM | 0.000983 s⁻¹ | 229000 M⁻¹ s⁻¹ | B2
3.73 nM | 0.00837 s⁻¹ | 2.24e+06 M⁻¹ s⁻¹ | B3

target: T1, Human nectin-4 ECD-6His (TNT-175); experiment: competition ELISA; nectin-4 ECD premixed with TNT208, captured by the coat antibody; % of signal without premix antibody
Protocol: as §1

% of Positive | Binder
2.3% | B1
5.3% | B2
2.4% | B3

target: T1, Human nectin-4 ECD-6His (TNT-175); experiment: competition ELISA; nectin-4 ECD premixed with TNT206, captured by the coat antibody; % of signal without premix antibody
Protocol: as §1

% of Positive | Binder
6% | B1
11.4% | B2
3.1% | B3

target: T1, Human nectin-4 ECD-6His (TNT-175); experiment: competition ELISA; nectin-4 ECD premixed with TNT205, captured by the coat antibody; % of signal without premix antibody
Protocol: as §1

% of Positive | Binder
36.9% | B1
54.8% | B2
8.4% | B3

target: T1, Human nectin-4 ECD-6His (TNT-175); experiment: competition ELISA; nectin-4 ECD premixed with TNT211, captured by the coat antibody; % of signal without premix antibody
Protocol: as §1

% of Positive | Binder
17.5% | B1
24.6% | B2
6% | B3

target: T1, Human nectin-4 ECD-6His (TNT-175); experiment: competition ELISA; nectin-4 ECD premixed with TNT209, captured by the coat antibody; % of signal without premix antibody
Protocol: as §1

% of Positive | Binder
20.5% | B1
30.4% | B2
5.1% | B3

target: T1, Human nectin-4 ECD-6His (TNT-175); experiment: competition ELISA; nectin-4 ECD premixed with TNT201, captured by the coat antibody; % of signal without premix antibody
Protocol: as §1

% of Positive | Binder
1.1% | B1
1.5% | B2
2.2% | B3

target: T1, Human nectin-4 ECD-6His (TNT-175); experiment: competition ELISA; nectin-4 ECD premixed with TNT210, captured by the coat antibody; % of signal without premix antibody
Protocol: as §1

% of Positive | Binder
1.1% | B1
2.4% | B2
2.1% | B3

target: T2, human nectin-4 on cells; experiment: flow cytometry MFI, MNK74 (nectin-4 positive) over AGS (negative)
Protocol: Cell binding of nectin-4 antibodies. Cell binding of the nectin-4 antibodies was also assessed. MNK74 (nectin-4 positive) and AGS (nectin-4 negative) cells were obtained from ATCC and cultured according to their protocols. Cells were detached with TrypLE (Gibco) and washed by centrifugation for five minutes at 400×g with FACS buffer (PBS+2% FBS). Cells were resuspended in FACS buffer, plated in 96-well format (0.25 e6/well) then pelleted by centrifugation for five minutes at 400×g. Cells were stained at 4° C. in Fixable Viability Dye eFluor 506 (eBioscience) diluted 1:4,000 in PBS. […] Cells were centrifuged, washed once in FACS buffer and stained at 4° C. with Goat F(ab′)₂ anti-Mouse IgG APC (Southern Biotech) diluted 1:400 in FACS buffer for 30 minutes or appropriate anti-human IgG. Cells were centrifuged, washed twice and fixed in 0.5% paraformaldehyde. Cells were analyzed on Attune NxT Flow Cytometer (Thermo Fisher), with subsequent data analysis by Flowjo 10.7 (BD). Dead cells were excluded by gating on the eFluor 506-negative population. […] Binding was assessed by median fluorescent intensity.

Fold-change of binding to MNK74 compared to control AGS | Binder
4.5 fold | B1
5 fold | B2
5.2 fold | B3
